What was measured:
[1] = target: APJ (orphan G protein-coupled receptor protein); experiment: radioligand competition, compound of Ref. Ex. 2 as labelled ligand, CHO-A10 membrane fraction
[2] = target: APJ (orphan G protein-coupled receptor protein); experiment: cell-based or functional assay
[3] = target: APJ (orphan G protein-coupled receptor protein); experiment: radioligand competition, 125I-labelled compound of Ref. Ex. 1 (100 pM), CHO-A10 membrane fraction

Sequence of APJ (orphan G protein-coupled receptor protein) (P35414 whole entry): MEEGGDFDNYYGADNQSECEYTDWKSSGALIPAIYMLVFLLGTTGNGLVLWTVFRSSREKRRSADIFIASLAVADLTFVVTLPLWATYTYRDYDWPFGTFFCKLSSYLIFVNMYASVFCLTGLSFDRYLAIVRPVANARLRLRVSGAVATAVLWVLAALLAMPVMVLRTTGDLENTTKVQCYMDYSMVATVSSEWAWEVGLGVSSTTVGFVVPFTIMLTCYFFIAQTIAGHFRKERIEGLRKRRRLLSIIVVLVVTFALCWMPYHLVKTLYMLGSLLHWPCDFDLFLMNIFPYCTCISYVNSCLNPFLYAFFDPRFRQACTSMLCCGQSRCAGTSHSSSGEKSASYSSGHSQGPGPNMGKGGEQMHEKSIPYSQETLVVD

Row | Substance | IC50 [1] [nM] | EC50, inhibition of forskolin-stimulated cAMP production (CHO-A10 clone 6 cells) [2] [nM] | IC50 [3] [nM]
1 | Arg-Pro-Arg-Leu-Ser-Dap(Ac)-Arg-Gly-Pro-Cha-Pro-Phe(Cl) (peptide) | 0.11 | 0.69 | 0.69
2 | Arg-Pro-Arg-Leu-Phe-His-Lys-Gly-Pro-Met-Pro-Phe(Cl) (peptide) | 0.066 | 0.38 | 8
3 | Arg-Arg-Gln-Arg-Pro-Arg-Leu-Ser-Ala-Arg-Gly-Pro-Met-Pro-Phe(Cl) (peptide) | 0.1 |  | 0.2
4 | Arg-Pro-Arg-Leu-Ser-His-Lys-Gly-Pro-Met-Phe(Cl) (peptide) | 0.17 | 0.16 | 
5 | pGlu-Arg-Pro-Arg-Leu-Ser-His-Lys-Gly-Pro-Met-Phe(Cl) (peptide) | 0.48 | 0.43 | 
6 | Arg-Pro-Arg-Leu-Ser-Ala-Arg-Gly-N-MeAla-Met-Pro-Phe(Cl) (peptide) | 0.09 | 0.27 | 0.27
7 | Arg-Pro-Arg-Leu-Ser-Ala-Arg-Gly-Pro-Met-Pro-Phe(Cl) (peptide) | 0.036 | 0.32 | 0.91
8 | Arg-Pro-Arg-Leu-Ser-Dap-Arg-Gly-Pro-Cha-Pro-Phe(Cl) (peptide) | 0.26 | 0.52 | 0.52

Results, then the substance that gave them:

Row | IC50 [1] [nM] | EC50, inhibition of forskolin-stimulated cAMP production (CHO-A10 clone 6 cells) [2] [nM] | IC50 [3] [nM] | Substance
9 | 0.18 | 0.32 | 0.32 | Arg-Arg-Gln-Arg-Pro-Arg-Leu-Ser-Ala-Arg-Gly-Pro-Met-Pro-Phe(Cl)-NH2 (peptide)
10 | 0.064 | 0.37 | 0.37 | Arg-Pro-Arg-Leu-Ser-Ala-Arg-Gly-Pro-Ala-Pro-Phe(Cl) (peptide)
11 | 0.29 | 0.19 |  | Arg-Pro-Arg-Leu-Ser-Ala-Arg-Gly-Gly-Met-Pro-Phe(Cl) (peptide)
12 |  | 0.41 | 1.4 | Arg-Pro-Arg-Leu-Ser-His-Lys-Gly-Pro-Cha-Pro-Phe(Cl) (peptide)
13 |  | 0.4 |  | pGlu-Arg-Pro-Arg-Leu-Ser-His-Lys-Gly-Pro-Met-Pro-Nal(2) (peptide)

From patent publication US20040116336A1, “Peptide derivatives” (priority 2002, published 2004)
